From FireProtDB (doi:10.1093/protein/15.10.817)

Settings: Rattus norvegicus, pH 7, Thermal, CD, HEPES 10 mM, whole UniProt chain shown

B1: High mobility group protein B1 wild type, P63159 (protein)
chain: MGKGDPKKPRGKMSSYAFFVQTCREEHKKKHPDASVNFSEFSKKCSERWKTMSAKEKGKFEDMAKADKARYEREMKTYIPPKGETKKKFKDPNAPKRPPSAFFLFCSEYRPKIKGEHPGLSIGDVAKKLGEMWNNTAADDKQPYEKKAAKLKEKYEKDIAAYRAKGKPDAAKKGVVKAEKSKKKKEEEDDEEDEEDEEEEEEEEDEDEEEDDDDE
unfolding free energy (20 °C, NiSO4 1 mM): 2.7 kcal/mol | Tm (NiSO4 1 mM): 40.6 °C | unfolding enthalpy (van 't Hoff) (NiSO4 1 mM): 35.7 kcal/mol | Tm: 40.6 °C | unfolding enthalpy (van 't Hoff): 35.7 kcal/mol
